Earlier results in article PMC3268021.
Where two headings read alike, the source gives them in different places.

Key:
[1] = biological target: TXA2R (agonist-activated) (UniProt P21731)
TXA2R (ligand-free) = TXA2R (ligand-free) (UniProt P21731)
phospholipase C [2] = biological target: phospholipase C (UniProt P19174)
phospholipase C [3] = biological target: phospholipase C (UniProt P19174); remark: listed apart in the source
Calmodulin = Calmodulin (UniProt P0DP23)

UniProt P19174, sequence (P19174 2-1290): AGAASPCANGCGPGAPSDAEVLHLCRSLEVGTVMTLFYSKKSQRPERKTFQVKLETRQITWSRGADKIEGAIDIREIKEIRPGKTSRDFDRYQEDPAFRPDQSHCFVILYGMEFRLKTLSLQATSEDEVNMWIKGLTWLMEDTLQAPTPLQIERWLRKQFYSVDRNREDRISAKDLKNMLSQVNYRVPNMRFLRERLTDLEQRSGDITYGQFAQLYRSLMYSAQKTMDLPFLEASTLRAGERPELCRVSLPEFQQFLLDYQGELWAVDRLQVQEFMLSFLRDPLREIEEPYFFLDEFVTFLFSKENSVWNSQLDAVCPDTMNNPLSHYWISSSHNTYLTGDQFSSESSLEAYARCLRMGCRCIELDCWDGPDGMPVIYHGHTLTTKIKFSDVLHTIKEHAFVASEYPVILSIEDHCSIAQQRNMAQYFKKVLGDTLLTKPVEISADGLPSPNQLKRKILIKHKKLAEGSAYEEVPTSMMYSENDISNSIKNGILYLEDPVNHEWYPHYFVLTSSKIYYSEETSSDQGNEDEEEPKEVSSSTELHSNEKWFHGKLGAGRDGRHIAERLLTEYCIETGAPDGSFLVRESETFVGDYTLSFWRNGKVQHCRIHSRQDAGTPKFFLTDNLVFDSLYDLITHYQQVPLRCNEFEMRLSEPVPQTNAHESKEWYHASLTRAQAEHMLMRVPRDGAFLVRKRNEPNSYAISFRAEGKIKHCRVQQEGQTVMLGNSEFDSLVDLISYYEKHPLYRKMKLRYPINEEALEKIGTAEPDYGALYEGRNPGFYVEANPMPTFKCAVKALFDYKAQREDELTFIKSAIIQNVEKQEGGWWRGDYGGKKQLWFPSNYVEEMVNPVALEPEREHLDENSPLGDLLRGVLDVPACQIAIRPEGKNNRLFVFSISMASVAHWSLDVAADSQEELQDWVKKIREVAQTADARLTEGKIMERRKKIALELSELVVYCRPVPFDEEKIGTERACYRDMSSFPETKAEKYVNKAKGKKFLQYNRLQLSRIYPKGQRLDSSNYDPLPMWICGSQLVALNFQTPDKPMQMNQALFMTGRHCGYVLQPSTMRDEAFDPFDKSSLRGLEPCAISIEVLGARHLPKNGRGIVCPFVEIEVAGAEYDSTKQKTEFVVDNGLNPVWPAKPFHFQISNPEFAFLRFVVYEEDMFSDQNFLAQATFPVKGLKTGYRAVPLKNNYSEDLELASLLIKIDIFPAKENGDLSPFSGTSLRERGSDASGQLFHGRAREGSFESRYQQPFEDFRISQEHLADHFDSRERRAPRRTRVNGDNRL

Gαq C-terminal peptide C-terminal 15-mer peptide (from UniProt P50148)
Kd [1]: 240 µM | Kd (TXA2R (ligand-free)): 17 µM

PCI-peptide 724-736 724-736 (from UniProt P19174)
Ki (phospholipase C [2]): 3.5 µM | Ki (phospholipase C [3]): 120 µM

pAC28 peptide of AC1 495-522 (from UniProt P19754)
Kd (Calmodulin): 2 nM
